Reference: patent publication US20110218114A1, “NUCLEOTIDE TRIPHOSPHATE WITH AN ELECTROACTIVE LABEL CONJUGATED TO THE GAMMA PHOSPHATE” (priority 2007, published 2011)
One block for each compound: values may come before it.

Key:
Assay type in all cases: biochemical
Abl1-T315I = target: T1, Abl1-T315I (Homo sapiens, UniProt P00519, T315I); assay: Electrochemical (CV) Fc-ATP phosphorylation assay, substrate peptide immobilized on gold microelectrode, Abl1-T315I; details: for phosphorylation of immobilized peptide by Abl1-T315I (anodic current response): control peptides, HeLa cell lysate, FIG. 12C
T1 construct: purchased Cell Signalling Technology (MA, USA)
Experimental: (§1) The covalent immobilization of substrate peptides on the gold microelectrode surface using succinimide-esters of lipoic acid included the following steps: (a) incubation of the bare gold microelectrode with 5 mM NHS-lipoic acid ester in ethanol for 15 h; (b) incubation of the N-Hydroxysuccinimide (NHS)-lipoic acid-modified surface with the substrate peptides in the presence of 2 mM N-(3-Dimethylaminopropyl)-N′-ethylcarbodiimide (EDC) in 0.1 M 2-(N-Morpholino) ethanesulfonic acid (MES, pH 6) for 2 h, (c) incubation of the peptide-modified electrodes with Mercaptopolyethylene glycol 5′000 monomethyl ether (PEG-thiol 5′000) solution (1:100 v/v) in ethanol for 10 min.
Abl1-T315I kinase assay buffer included 60 mM HEPES (pH 7.5), 5 mM MgCl2, 5 mM MnCl2, 3 μM Na3VO4, 400 μM ATP, peptide substrate (STP) and the kinase in a total reaction volume of 25 μL. Purified recombinant human Abl1-T315I mutant kinase and its substrate peptide Signal Transduction Protein (STP, EGIYDVP) were purchased from Cell Signalling Technology (MA, USA). The substrate peptide modified electrodes were incubated at 37° C. for 2 h. After following the same washing procedures as for CK2, the CV measurements were recorded using the same parameters as described above.
(§2) The electrochemical data from the CV measurements are obtained as charge density (J) per test. […] Here, the detailed description of the calculation procedure will be given for CK2-catalysed phosphorylation reactions. The reaction volume is 25 μL, which leads to 2.5 nmole Fc-ATP per test. Then, the specific electro-activity (SE) of Fc-ATP (J/nmole Fc-ATP) would be calculated as follows: […]
(§3) where V is the rate, V0 is the rate in the absence of the inhibitor, [I] is the inhibitor concentration and Ki′ is the apparent inhibition constant.
(§4) where [S] is the surface density of the immobilized substrate peptide and Km is the Michaelis-Menten constant. The surface density conditions of the immobilized substrate peptide were changed between 1, 5, 10, 15 and 20 pmol/cm2. The initial time dependence of the kinase reactions were determined at these varying peptide density conditions. The phosphorylation reaction was stopped after 5, 15, 30, 60, 90, 120 and 150 min, and the measurement of the attached Fc molecules was carried out. […] If the y is set for 0 and the equation is solved for x, x intercept becomes equal to −1/Km.

HER2/ErbB2 = target: T2, HER2/ErbB2 (Homo sapiens, UniProt P04626); assay: Electrochemical (CV) Fc-ATP phosphorylation assay, substrate peptide immobilized on gold microelectrode, HER2/ErbB2; details: for phosphorylation of immobilized peptide by HER2/ErbB2 (anodic current response): control peptides, FIG. 13C
T2 construct: purchased Cell Signalling Technology (MA, USA)
Experimental: as §1
(§5) The electrochemical data from the CV measurements are obtained as charge density (J) per test. The concentration of Fc-ATP for the kinase activity determinations was 100 μM, for CK2 and 200 μM for Abl1-T315I and HER2-ErbB2. Here, the detailed description of the calculation procedure will be given for CK2-catalysed phosphorylation reactions. The reaction volume is 25 μL, which leads to 2.5 nmole Fc-ATP per test. Then, the specific electro-activity (SE) of Fc-ATP (J/nmole Fc-ATP) would be calculated as follows: […]
(§6) The apparent inhibition constants Ki′ were determined by fitting equation (3) to the experimental data.
(§7) where V is the rate, V0 is the rate in the absence of the inhibitor, [I] is the inhibitor concentration and Ki′ is the apparent inhibition constant. The true inhibition constants Ki were calculated by correction of Ki′ according to Equation (4): […]
as §4

CK2α′ = CK2α′ (Homo sapiens, UniProt P19784); assay: Electrochemical (CV) Fc-ATP phosphorylation assay, substrate peptide immobilized on gold microelectrode, CK2α′
Experimental: as §1
(§8) The substrate peptide modified electrodes were incubated at 37° C. for 2 h.
as §5, §6, §7, §4

CK2α = CK2α (Homo sapiens, UniProt P68400); assay: Electrochemical (CV) Fc-ATP phosphorylation assay, substrate peptide immobilized on gold microelectrode, CK2α
Experimental: as §1, §8, §2, §3, §4

[1] = HER2/ErbB2, immobilized substrate peptide, Lineweaver-Burk
[2] = Abl1-T315I, immobilized substrate peptide, Lineweaver-Burk
[3] = CK2α′, immobilized substrate peptide, Lineweaver-Burk

CK2α, sequence (P68400 whole entry): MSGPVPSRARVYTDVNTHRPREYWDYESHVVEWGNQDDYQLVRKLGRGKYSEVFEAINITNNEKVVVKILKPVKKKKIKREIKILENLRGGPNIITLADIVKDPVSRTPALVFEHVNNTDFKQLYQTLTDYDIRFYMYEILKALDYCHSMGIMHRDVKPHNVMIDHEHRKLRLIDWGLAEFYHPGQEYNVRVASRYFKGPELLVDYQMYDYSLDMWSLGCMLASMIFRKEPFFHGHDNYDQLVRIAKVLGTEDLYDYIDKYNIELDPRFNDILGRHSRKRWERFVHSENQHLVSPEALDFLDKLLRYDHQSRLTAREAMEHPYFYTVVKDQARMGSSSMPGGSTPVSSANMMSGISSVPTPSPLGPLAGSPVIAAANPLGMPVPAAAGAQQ
CK2α′, sequence (P19784 whole entry): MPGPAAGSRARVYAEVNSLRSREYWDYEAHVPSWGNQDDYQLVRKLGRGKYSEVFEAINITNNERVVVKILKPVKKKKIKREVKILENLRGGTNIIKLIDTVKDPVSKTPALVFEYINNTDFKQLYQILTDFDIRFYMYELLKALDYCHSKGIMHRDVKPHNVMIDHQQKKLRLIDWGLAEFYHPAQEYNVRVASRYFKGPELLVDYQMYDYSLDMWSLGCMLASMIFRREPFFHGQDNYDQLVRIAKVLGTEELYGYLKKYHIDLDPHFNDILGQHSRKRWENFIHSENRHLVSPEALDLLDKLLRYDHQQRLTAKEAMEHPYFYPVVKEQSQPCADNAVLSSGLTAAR

inhibition of EGIYDVP phosphorylation (specificity control) (Abl1-T315I; EGIYDVP peptide exposed to inhibitor, FIG. 11C-b): not inhibited
Compound: Brc1c(Br)c(Br)c2[nH]nnc2c1Br [(1), 4,5,6,7-Tetrabromo-2-azabenzimidazole]

Vmax/Kmax (HER2/ErbB2; HER2/ErbB2, immobilized substrate peptide): 7.41 | Km (HER2/ErbB2; [1]): 208 µM | Vmax (HER2/ErbB2; [1]): 1.54 µmol/min/mg | phosphorylation of immobilized peptide by Abl1-T315I (anodic current response) (Abl1-T315I): Low current responses
Compound: DNEYFYV [FLT3 substrate peptide for HER2/ErbB2]

Compound: EGIYDVP [Abl1-T315I substrate peptide Signal Transduction Protein]
phosphorylation of immobilized peptide by HER2/ErbB2 (anodic current response) (HER2/ErbB2): slight increase in the current responses | phosphorylation of immobilized peptide by CK2 (current response) (CK2α′; control peptide in presence of cell lysate, FIG. 10B-c): did not catalyze phosphorylation | Vmax/Kmax (Abl1-T315I; Abl1-T315I, immobilized substrate peptide): 9.18 | Km (Abl1-T315I; [2]): 182 µM | Vmax (Abl1-T315I; [2]): 1.67 µmol/min/mg

Compound: RRRDDDSDDD [CK2 peptide substrate]
Vmax/Kmax (CK2α): 22.64 | Km (CK2α; Lineweaver-Burk): 87 µM | Vmax (CK2α; Lineweaver-Burk): 1.97 µmol/min/mg | phosphorylation of immobilized peptide by HER2/ErbB2 (anodic current response) (HER2/ErbB2): did not catalyze phosphorylation | Vmax/Kmax (CK2α′; CK2α′, immobilized substrate peptide): 18.16 | Km (CK2α′; [3]): 98 µM | Vmax (CK2α′; [3]): 1.78 µmol/min/mg | phosphorylation of immobilized peptide by Abl1-T315I (anodic current response) (Abl1-T315I): did not catalyze phosphorylation | phosphorylation of immobilized peptide by Abl1-T315I (anodic current response) (Abl1-T315I; listed as CK2 substrate peptide): No significant current responses
